In patent publication US20190169256A1:
One block for each substance: values may come before it.

Key:
Assay in all cases: cell-based or functional assay
[1] = molecular target: Salmon tac3 receptor (salmon)
[2] = molecular target: Tilapia tac3 receptor (tilapia)
[3] = molecular target: Zebrafish tac3 receptor (zebrafish)

luciferase activity (CRE-Luc, COS-7 cells transfected with salmon tac3r) [1]: 1.8 fold
luciferase activity (CRE-Luc reporter, COS-7 cells transfected with tilapia tac3 receptor) [2]: 1.8 fold
Substance: tilapia NKB (peptide)

CRE-LUC (COS-7 cells transfected with zebrafish tac3 receptor) [3]: > 3 fold
Substance: zebrafish NKB (peptide)

EC50 of SRE-Luciferase activity (COS7 cells expressing slNKB receptor) [1]: 1.03 nM
Substance: Salmon NKB (slNKB) (peptide)
